Patent publication US20250382376A1 (FUDAN UNIVERSITY, published 2025)

T1: extracellular domain of human CD73 protein, C-terminus polyhistidine-tagged (human, UniProt P21589 27-547)
T1 construct: also the immunogen; also called CD73-ECD; human CD73-ECD
T1 sequence: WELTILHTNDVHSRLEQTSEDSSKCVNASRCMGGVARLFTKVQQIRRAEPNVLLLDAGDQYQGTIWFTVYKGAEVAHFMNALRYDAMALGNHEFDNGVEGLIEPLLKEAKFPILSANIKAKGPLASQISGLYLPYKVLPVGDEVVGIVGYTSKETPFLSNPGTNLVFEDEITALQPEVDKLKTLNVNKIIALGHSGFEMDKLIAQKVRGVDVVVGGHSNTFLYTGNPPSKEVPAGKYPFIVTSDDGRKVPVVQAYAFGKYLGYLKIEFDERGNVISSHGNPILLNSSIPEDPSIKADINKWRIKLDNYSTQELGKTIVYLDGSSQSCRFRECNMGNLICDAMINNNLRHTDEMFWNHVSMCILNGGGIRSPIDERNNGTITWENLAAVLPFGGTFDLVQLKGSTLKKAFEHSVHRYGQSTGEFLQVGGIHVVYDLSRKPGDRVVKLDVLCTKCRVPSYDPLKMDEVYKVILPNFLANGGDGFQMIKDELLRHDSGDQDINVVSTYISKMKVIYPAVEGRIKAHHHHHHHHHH

T2: CD73 on the surface of human cells (human, UniProt P21589 27-549)
T2 construct: whole, on cells; The cell line of each value is named under assay or readout; also called CD73 on the surface of tumor cells; CD73 enzyme on the surface of MDA-MB-231 cells
T2 sequence (looked up): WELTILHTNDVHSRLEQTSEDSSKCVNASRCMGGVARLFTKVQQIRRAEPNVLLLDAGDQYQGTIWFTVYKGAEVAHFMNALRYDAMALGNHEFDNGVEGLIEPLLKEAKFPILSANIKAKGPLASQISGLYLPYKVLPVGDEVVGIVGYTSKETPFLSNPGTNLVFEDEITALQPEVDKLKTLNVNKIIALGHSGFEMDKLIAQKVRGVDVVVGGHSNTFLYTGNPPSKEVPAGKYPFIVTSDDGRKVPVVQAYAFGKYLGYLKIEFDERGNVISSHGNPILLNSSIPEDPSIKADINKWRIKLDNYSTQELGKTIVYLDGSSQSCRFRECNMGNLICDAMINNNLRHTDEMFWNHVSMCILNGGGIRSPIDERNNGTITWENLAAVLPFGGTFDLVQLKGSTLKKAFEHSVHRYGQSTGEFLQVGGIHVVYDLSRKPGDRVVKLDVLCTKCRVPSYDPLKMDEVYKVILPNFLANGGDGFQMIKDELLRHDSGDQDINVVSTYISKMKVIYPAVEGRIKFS


Assays:
[1] = target: T1, extracellular domain of human CD73 …; assay: SPR as the filing names it (method of Example 2, ForteBio OCTET R2)
Protocol: Surface plasmon resonance (SPR) assay: Protein A sensor was used to immobilize the antibodies, with an immobilization height of about 1.5 nM. […] Affinity detection: equilibrium for 60 s, binding for 180 s, dissociation for 180 s, at a detection temperature of 25° C. Kinetic characterization analysis was performed using the ForteBio OCTET R2 system.
The affinity of the humanized antibody to the antigen was detected by the surface plasmon resonance (SPR) assay method in Example 2.

[2] = target: T2, CD73 on the surface of human cells; assay: Flow cytometry on NCI-H1299 cells
Protocol: 100 μL of the test antibodies diluted from 10 μg/mL to 0.016 μg/mL in a 5-fold gradient were used as the primary antibodies, and were mixed with 1×10⁵ tumor cells suspended in 100 μL RPMI-1640 serum-free medium to make a final concentration of 5 μg/mL diluted to 0.008 μg/mL, and then incubated at 4° C. for 1 h. The cells were washed twice with PBS to remove unbound primary antibodies, and then the target cells were incubated with 200 μLPE-labeled secondary antibody at 2 μg/mL at 4° C. for 30 min. The cells were washed twice with PBS to remove unbound secondary antibodies, and finally the cells were resuspended in 200 μL PBS. The binding affinity of the test antibodies to CD73 on the surface of the corresponding cells was measured by flow cytometry.
The binding affinity of the humanized antibodies to NCI-H1299 cells was detected according to the method for determining the binding affinity of CD73 on the surface of tumor cells in Example 5.

[3] = target: T1, extracellular domain of human CD73 …; assay: ELISA on coated human CD73-ECD (the text rounds this value to 0.05 µg/mL)
Protocol: (§1) The CD73 protein extracellular region (CD73-ECD) was diluted to 1 μg/mL using the coating solution, and an ELISA plate was coated at 100 μL/well at 4° C. overnight. Excess antigens were washed away, and the plate was blocked with 1% BSA at room temperature for 2 hours. Then, 5-fold gradient dilutions of each monoclonal antibody were added at 100 μL/well and incubated at room temperature for 1 hour. Unbound antibodies were washed away, and an appropriate concentration of Staphylococcal protein A labeled with horseradish peroxidase was added at 100 μL/well and incubated at room temperature for 0.5 hours. Unbound secondary antibodies were washed away, and TMB color development solution was added to react for about 15 minutes. 1M HCL was added at 50 µL/well to terminate the color development reaction, and then the absorbance was measured at 450 nm and the data was analyzed.
Based on the above mutants, 5-E11ASCS was designed and prepared, and the CD73 antigen ELISA binding affinity test was performed according to the method of Example 3.

[4] = target: T1, extracellular domain of human CD73 …; assay: ELISA on CD73-ECD, 20 µL supernatant of antibody expression, second of two readings; PBS 0.19, 0.18
Protocol: as §1
(§2) CD73 antigen ELISA binding affinity test was performed according to the method of Example 3.

[5] = target: T1, extracellular domain of human CD73 …; assay: ELISA on CD73-ECD, 100 µL supernatant of antibody expression, second of two readings; PBS 0.19, 0.18
[6] = target: T1, extracellular domain of human CD73 …; assay: ELISA on CD73-ECD, 0.8 µL supernatant of antibody expression, first of two readings; PBS 0.19, 0.18
Protocol: as §1, §2

[7] = target: T1, extracellular domain of human CD73 …; assay: ELISA on CD73-ECD, 100 µL supernatant of antibody expression, first of two readings; PBS 0.19, 0.18
Protocol: as §1, §2

Binder	Kd [1]	Max MFI [2]	EC50 [3]	ELISA reading (not named on the sheet) [4]	ELISA reading (not named on the sheet) [5]	ELISA reading (not named on the sheet) [6]	ELISA reading (not named on the sheet) [7]
chimeric nanobody 3-D7 (Fc fusion, Human-alpaca chimeric antibody (VHH on hIgG1 Fc); Only the VHH is tied to the tested molecule; 37-39 exist for 3-D7-FC1/FC2/FC3; also called original antibody 3-D7) VHH: QRQLVESGGGLVQPGGSLRLSCAASGFLLDYYVIGWFRQAPGKEREGVSCISGSDRSTYYADSVKGRFTISRDNAKNTVYLQMNSLKPEDTAVYFCAADPSPVTVQAMCLPRFPVPYWGQGTQVTVST	472 pM	105000 MFI	–	–	–	–	–
chimeric nanobody 5-E11 (Fc fusion, Human-alpaca chimeric antibody (VHH on hIgG1 Fc); Only the VHH is tied to the tested molecule; also called original antibody 5-E11) VHH: ALQLVESGGGLVQPGGSLRLSCEVSGFTLDYYNIGWFRQAPGKEREGVSCSSNSGGSTYYADSVKGRFTISRDNAKNTVYLQMNSLKPEDTGVYYCAAYRGWHPSLDARVYDYWGQGTEVTVSS	–	–	0.0536 µg/mL	4.32	4.23	4.18	4.33
